Experimental data taken from publication PMC10197132.

How the values were obtained:
[1] = molecular target: G3-SEAP (human-secreted embryonic alkaline phosphatase with an N-terminal Gly3 sequence) (human); test: SEC-MALS
G3-SEAP = G3-SEAP (human, UniProt P05187); test: fluorescence polarization

| stoichiometry N [1] | Molecule | binding result (G3-SEAP) |
| --- | --- | --- |
| 2 | G3-SEAP (human-secreted embryonic alkaline phosphatase with an N-terminal Gly3 sequence) (enzyme) |  |
|  | FAM-23DR DNA-RNA hybrid (DNA:RNA) DNA: CGGTGTGGTCGCTGTAATCAGAG RNA: CUCUGAUUACAGCGACCACACCG | no binding |
